Residue numbers refer to the chain shown, from its start.
B1: Cv2.1353 IgG1 (antibody, V domains shown)
VH: EVQLVESGGGLVQPGGSLRLSCAASGVTVSSNYMNWVRQAPGKGLEWVSVIYSGGSTFYADSVKGRFIISRDNSKNTLYLQMNSLKTEDTAVYYCARDLGPMGFDIWGQGTMVTVSS
VL: DIQMTQSPSFLSASVGDRVTITCRASQGISSYLAWYQQKPGKAPKLLIYAASTLQSGVPSRFSGSGSGTEFTLTISSLQPEDFATYYCQQLNSDPPVTFGPGTKVDIKR
B2: Cv2.1169 IgG1 (antibody, V domains shown)
VH: QVQLVQSGPEVKKPGTSVKVSCKASGFTFTTSAVQWVRQARGQRLEWIGWIVVGSGNTNYAQKFQERVTITRDMSTTTAYMELSSLRSEDTAVYYCAAPYCSGGTCLDGFDIWGQGTMVTVSS
VL: not shown
B3: Cv2.3194 IgG1 (antibody, V domains shown)
VH: EVQLVESGGGLIQPGGSLRLSCAASGITVTSNYMSWVRQAPGKGLEWVSVIYPGGSTFYADSVKGRFTISRDNSKNTLYLQMNSLRAEDTAVYYCARDLVVYGMDVWGQGTTVTVSS
VL: EIVLTQSPGTLSLSPGERATLSCRASQSVSSSYLAWYQQKPGQAPRLLIYGASSRATGIPGRFSGSGSGTDFTLTISRLEPEDFAIYYCQQGVTFGGGTKVEIKR
B4: Cv2.3235 IgG1 (antibody, V domains shown)
VH: B3 VH with I27F, T30S, S31R, P53S, L99G, V100D, V101Y
VL: DIQMTQSPSFLSASVGDRVTITCRASQGISSFLAWYQQKPGKAPKLLIYGASTLQSGVTSRFSGSGSGTEFTLTISSLQPEDFATYYCQRLDSYPPITFGQGTRLEIKR
B5: Cv2.5213 IgG1 (antibody, V domains shown)
VH: B3 VH with I27F, T30S, V50L, P53S, F58Y, V100N, V101Y, T111A
VL: B1 VL with F10S, E70D, N92D, D94Y, P95S, V97F

What follows are binders tested against T1, SARS-CoV-2 S1结构域 (SARS-CoV-2, UniProt P0DTC2 16-681) (assay: SPR (Biacore), antibody coupled to CM5 chip, viral protein as analyte, 25°C).
T1 construct: also called S1亚基

Binder | Kd [nM]
B1 | < 1000
B2 | < 1000
B3 | < 1000
B4 | < 1000
B5 | < 1000

— patent publication CN117836322A (PASTEUR INSTITUT, dated 2024)
